In the Human Domainome abundance scans (Beltran et al. 2025) one finds abundance fitness data, which are given here for 57 variants.

± gives the uncertainty stated by the source.

The labels stand for the following.
B1: Tripartite motif-containing protein 44, residues 174 to 218; numbered along this chain, Q96DX7 (parent)
chain: VAKRKCPDHGLDLSTYCQEDRQLICVLCPVIGAHQGHQLSTLDEA

In this series the parent is B1. Kind of series: abundance fitness (aPCA) (normalised: wild type 0, dead -1); higher = more abundant; growth selection in yeast, the domain comes from the species named. The conditions noted are these: Homo sapiens.
VAKRKCPDHGLDLSTYCQEDRQLICVLEPVIGAHQGHQLSTLDEA [C28E]: the abundance fitness is -0.704 ± 0.043.

With VAKRKCPDHGLDLSTYCQEDRQLICVLDPVIGAHQGHQLSTLDEA [C28D], the abundance fitness was -0.557 ± 0.059.

VAKRKCPDHGLDLSTYCQEDRQLICVLAPVIGAHQGHQLSTLDEA [C28A]: the abundance fitness is -0.897 ± 0.043.

Take VAKRKCPDHGLDLSTYCQEDRQLICVLFPVIGAHQGHQLSTLDEA [C28F]: the abundance fitness is -0.791 ± 0.083.

With VAKRKCPDHGLDLSTYCQEDRQLICTLCPVIGAHQGHQLSTLDEA [V26T], the abundance fitness came to 0.054 ± 0.029.

Turning to VAKRKCPDHGLDLSTYCQEDRQLICYLCPVIGAHQGHQLSTLDEA [V26Y], the abundance fitness was -0.041 ± 0.038.

Take VAKRKCPDHGLDLSTYCQEDRQLICCLCPVIGAHQGHQLSTLDEA [V26C]: the abundance fitness is 0.002 ± 0.032.

For VAKRKCPDHGLDLSTYCQEDRQLICALCPVIGAHQGHQLSTLDEA [V26A], the abundance fitness came to 0.042 ± 0.026.

With VAKRKCPDHGLDLSTYCQEDRQLICFLCPVIGAHQGHQLSTLDEA [V26F], the abundance fitness is -0.052 ± 0.045.

Consider VAKRKCPDHGLDLSTYCQEDRQLICNLCPVIGAHQGHQLSTLDEA [V26N], for which the abundance fitness stood at 0.062 ± 0.036.

For VAKRKCPDHGLDLSTYCQEDRQLICRLCPVIGAHQGHQLSTLDEA [V26R], the abundance fitness is 0.082 ± 0.027.

VAKRKCPDHGLDLSTYCQEDRQLICWLCPVIGAHQGHQLSTLDEA [V26W]: the abundance fitness was -0.065 ± 0.029.

With VAKRKCPDHGLDLSTYCQEDRQLICLLCPVIGAHQGHQLSTLDEA [V26L], the abundance fitness is -0.025 ± 0.027.

As to VAKRKCPDHGLDLSTYCQEDRQLICKLCPVIGAHQGHQLSTLDEA [V26K], the abundance fitness is 0.113 ± 0.033.

Consider VAKRKCPDHGLDLSTYCQEDRQLICDLCPVIGAHQGHQLSTLDEA [V26D], for which the abundance fitness worked out at 0.046 ± 0.031.

As for VAKRKCPDHGLDLSTYCQEDRQLICELCPVIGAHQGHQLSTLDEA [V26E], the abundance fitness is 0.066 ± 0.028.

Turning to VAKRKCPDHGLDLSTYCQEDRQLICSLCPVIGAHQGHQLSTLDEA [V26S], the abundance fitness is 0.084 ± 0.029.

As to VAKRKCPDHGLDLSTYCQEDRQLICMLCPVIGAHQGHQLSTLDEA [V26M], the abundance fitness is -0.011 ± 0.033.

Take VAKRKCPDHGLDLSTYCQEDRQLICQLCPVIGAHQGHQLSTLDEA [V26Q]: the abundance fitness came to 0.074 ± 0.032.

For the variant VAKRKCPDHGLDLSTYCQEDRQLICPLCPVIGAHQGHQLSTLDEA [V26P], the abundance fitness worked out at 0.029 ± 0.031.

In the case of VAKRKCPDHGLDLSTYCQEDRQLICGLCPVIGAHQGHQLSTLDEA [V26G], the abundance fitness is 0.002 ± 0.026.

VAKRKCPDHGLDLSTYCQEDRQLILVLCPVIGAHQGHQLSTLDEA [C25L]: the abundance fitness was -1.25 ± 0.1.

Regarding VAKRKCPDHGLDLSTYCQEDRQLIKVLCPVIGAHQGHQLSTLDEA [C25K], the abundance fitness was -0.634 ± 0.043.

Consider VAKRKCPDHGLDLSTYCQEDRQLIGVLCPVIGAHQGHQLSTLDEA [C25G], for which the abundance fitness is -0.774 ± 0.031.

For the variant VAKRKCPDHGLDLSTYCQEDRQLIEVLCPVIGAHQGHQLSTLDEA [C25E], the abundance fitness was -0.717 ± 0.041.

With VAKRKCPDHGLDLSTYCQEDRQLIFVLCPVIGAHQGHQLSTLDEA [C25F], the abundance fitness is -0.926 ± 0.12.

For the variant VAKRKCPDHGLDLSTYCQEDRQLIVVLCPVIGAHQGHQLSTLDEA [C25V], the abundance fitness was -1.08 ± 0.055.

As for VAKRKCPDHGLDLSTYCQEDRQLIHVLCPVIGAHQGHQLSTLDEA [C25H], the abundance fitness was -0.798 ± 0.088.

With VAKRKCPDHGLDLSTYCQEDRQLIDVLCPVIGAHQGHQLSTLDEA [C25D], the abundance fitness was -0.662 ± 0.072.

For the variant VAKRKCPDHGLDLSTYCQEDRQLIRVLCPVIGAHQGHQLSTLDEA [C25R], the abundance fitness is -0.728 ± 0.031.

On to VAKRKCPDHGLDLSTYCQEDRQLIQVLCPVIGAHQGHQLSTLDEA [C25Q], for which the abundance fitness is -0.65 ± 0.043.

VAKRKCPDHGLDLSTYCQEDRQLIWVLCPVIGAHQGHQLSTLDEA [C25W]: the abundance fitness was -1.02 ± 0.054.

For VAKRKCPDHGLDLSTYCQEDRQLIMVLCPVIGAHQGHQLSTLDEA [C25M], the abundance fitness is -0.968 ± 0.079.

As to VAKRKCPDHGLDLSTYCQEDRQLIIVLCPVIGAHQGHQLSTLDEA [C25I], the abundance fitness was -1.11 ± 0.22.

In the case of VAKRKCPDHGLDLSTYCQEDRQLIPVLCPVIGAHQGHQLSTLDEA [C25P], the abundance fitness was -0.649 ± 0.054.

VAKRKCPDHGLDLSTYCQEDRQLIYVLCPVIGAHQGHQLSTLDEA [C25Y]: the abundance fitness was -0.601 ± 0.12.

VAKRKCPDHGLDLSTYCQEDRQFICVLCPVIGAHQGHQLSTLDEA [L23F]: the abundance fitness was -0.163 ± 0.049.

In the case of VAKRKCPDHGLDLSTYCQEDRQDICVLCPVIGAHQGHQLSTLDEA [L23D], the abundance fitness was 0.081 ± 0.039.

Consider VAKRKCPDHGLDLSTYCQEDRQMICVLCPVIGAHQGHQLSTLDEA [L23M], for which the abundance fitness was -0.004 ± 0.036.

With VAKRKCPDHGLDLSTYCQEDRQEICVLCPVIGAHQGHQLSTLDEA [L23E], the abundance fitness was 0.066 ± 0.03.

Turning to VAKRKCPDHGLDLSTYCQEDRQNICVLCPVIGAHQGHQLSTLDEA [L23N], the abundance fitness is -0.09 ± 0.056.

For the variant VAKRKCPDHGLDLSTYCQEDRQVICVLCPVIGAHQGHQLSTLDEA [L23V], the abundance fitness is -0.048 ± 0.027.

For VAKRKCPDHGLDLSTYCQEDRQQICVLCPVIGAHQGHQLSTLDEA [L23Q], the abundance fitness is 0.058 ± 0.031.

For the variant VAKRKCPDHGLDLSTYCQEDRQGICVLCPVIGAHQGHQLSTLDEA [L23G], the abundance fitness is -0.001 ± 0.025.

Take VAKRKCPDHGLDLSTYCQEDRQTICVLCPVIGAHQGHQLSTLDEA [L23T]: the abundance fitness was -0.001 ± 0.032.

In the case of VAKRKCPDHGLDLSTYCQEDRQCICVLCPVIGAHQGHQLSTLDEA [L23C], the abundance fitness was -0.116 ± 0.035.

Take VAKRKCPDHGLDLSTYCQEDRQSICVLCPVIGAHQGHQLSTLDEA [L23S]: the abundance fitness turned out to be 0.014 ± 0.028.

In the case of VAKRKCPDHGLDLSTYCQEDRQIICVLCPVIGAHQGHQLSTLDEA [L23I], the abundance fitness was -0.161 ± 0.075.

Regarding VAKRKCPDHGLDLSTYCQEDRQKICVLCPVIGAHQGHQLSTLDEA [L23K], the abundance fitness is -0.041 ± 0.04.

For VAKRKCPDHGLDLSTYCQEDRQWICVLCPVIGAHQGHQLSTLDEA [L23W], the abundance fitness worked out at 0.001 ± 0.027.

In the case of VAKRKCPDHGLDLSTYCQEDRQLICVECPVIGAHQGHQLSTLDEA [L27E], the abundance fitness turned out to be 0.063 ± 0.028.

For VAKRKCPDHGLDLSTYCQEDRQLICVQCPVIGAHQGHQLSTLDEA [L27Q], the abundance fitness came to 0.127 ± 0.029.

For the variant VAKRKCPDHGLDLSTYCQEDRQLICVICPVIGAHQGHQLSTLDEA [L27I], the abundance fitness was -0.119 ± 0.055.

Consider VAKRKCPDHGLDLSTYCQEDRQLICVFCPVIGAHQGHQLSTLDEA [L27F], for which the abundance fitness was -0.137 ± 0.049.

Turning to VAKRKCPDHGLDLSTYCQEDRQLICVWCPVIGAHQGHQLSTLDEA [L27W], the abundance fitness is -0.216 ± 0.032.

Regarding VAKRKCPDHGLDLSTYCQEDRQLICVVCPVIGAHQGHQLSTLDEA [L27V], the abundance fitness is -0.151 ± 0.027.

For the variant VAKRKCPDHGLDLSTYCQEDRQLICVSCPVIGAHQGHQLSTLDEA [L27S], the abundance fitness was -0.024 ± 0.027.
